Measurements from the supplement of paper PMC7877785.
± gives the uncertainty stated by the source.

Experiment: self-splicing fitness, log relative to wild type (ln ratio); higher = more splicing; Tetrahymena group I intron in knt gene, E. coli kanamycin selection, DiMSum; sequences stand for … in CUCUCU…GGAGGGAAAAGUUAUCAGGCAUGCACCUGGUAGCUAGUCUUUAAACCAAUAGAUUGCAUCGGUUUAAAAGGCAAGACCGUCAAAUUGCGGGAAAGGGGUCAACAGCCGUUCAGUACCAAGUCUCAGGGGAAACUUUGAGAUGGCCUUGCAAAGGGUAUGGUAAUAAGCUGACGGACAUGGUCCUAACCACGCAGCCAAGUCCUAAGUCAACAGAUCUUCUGUUGAUAUGGAUGCAGUUCACAGACUAAAUGUCGGUCGGGGAAGAUGUAUUCUUCUCAUAAGAUAUAGUCGGACCUCUCCUUAAUGGGAGCUAGCGGAUGAAGUGAUGCAACACUGGAGCCGCUGGGAACUAAUUUGUAUGCGAAAGUAUAUUGAUUAGUUUUGGAGUACUCGUGGUCG
How it was run: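 DiMSum derived fitness as the error-weighted combination of fold changes across replicates, kanamycin versus no kanamycin, normalised to wild type. E. coli BL21(DE3) held the library, which randomised all eight P1ex-region intron nucleotides within the knt kanamycin-resistance gene on pET-22b(+). Six replicate transformations grew overnight at 37°C or 30°C on LB agar with or without 25 μg/mL kanamycin, also containing 100 μg/mL carbenicillin, 50 μM IPTG and 0.2% rhamnose, and pooled colonies were amplicon-sequenced on an Illumina HiSeq 2500.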

| Sequence | self-splicing fitness (ln) (37 °C) | self-splicing fitness (ln) (30 °C) |
| --- | --- | --- |
| UAGUAGCAAUAUUACGAUGU | -2.22 ± 0.32 |  |
| UUUAAGCAAUAUUACGACUU | -0.889 ± 0.12 | -2.03 ± 0.12 |
| UGGUAGCAAUAUUACGGGUG | -0.609 ± 0.08 | -1.26 ± 0.1 |
| CGUCAGCAAUAUUACGGUAA | -1.3 ± 0.23 | -1.1 ± 0.26 |
| CGACAGCAAUAUUACGGCAU | -2.16 ± 0.25 | -3.08 ± 0.21 |
| UGGUAGCAAUAUUACGCAAA | -1.59 ± 0.17 | -2.06 ± 0.29 |
| CGAUAGCAAUAUUACGAUUU | -0.871 ± 0.14 | -2.52 ± 0.14 |
| GGCCAGCAAUAUUACGUACG | -1.1 ± 0.12 | -1.8 ± 0.11 |
| AGGCAGCAAUAUUACGCCGA | -1.97 ± 0.22 | -1.28 ± 0.35 |
| CUGUAGCAAUAUUACGCCCG | -0.221 ± 0.31 | -0.124 ± 0.26 |
| UGUUAGCAAUAUUACGGUUG | -1.2 ± 0.15 | -1.78 ± 0.14 |
| GCUAAGCAAUAUUACGCGGG | -0.902 ± 0.13 | -3.54 ± 0.2 |
| AGCAAGCAAUAUUACGGUGG | -2.32 ± 0.15 | -2.65 ± 0.1 |
| GGCAAGCAAUAUUACGGACA | -0.00922 ± 0.11 | -0.577 ± 0.085 |
| GGGAAGCAAUAUUACGAGGC | -1.4 ± 0.2 | -3.08 ± 0.29 |
| ACCCAGCAAUAUUACGAACU | -0.29 ± 0.13 | -1.33 ± 0.11 |
| AUAGAGCAAUAUUACGUCUG | -0.654 ± 0.14 | -0.796 ± 0.098 |
| GUCAAGCAAUAUUACGGAUU | -1.12 ± 0.12 | -2.73 ± 0.12 |
| AAGCAGCAAUAUUACGAGUC | -1.87 ± 0.18 | -4.83 ± 0.32 |

| Sequence | self-splicing fitness (ln) (37 °C) | self-splicing fitness (ln) (30 °C) |
| --- | --- | --- |
| UAAUAGCAAUAUUACGGGUU | -2.65 ± 0.21 | -3.33 ± 0.24 |
| GUGCAGCAAUAUUACGUGUG | -1.33 ± 0.1 | -2.95 ± 0.11 |
| UAGAAGCAAUAUUACGGUGG | -1.2 ± 0.13 | -1.84 ± 0.12 |
| CUAUAGCAAUAUUACGAUGA | -1.3 ± 0.17 | -1.92 ± 0.16 |
| CGCUAGCAAUAUUACGGUGU | -2.22 ± 0.21 | -3.54 ± 0.15 |
| UCAUAGCAAUAUUACGCAAU | -2.84 ± 0.28 | -3.1 ± 0.19 |
| UUCGAGCAAUAUUACGACCU | 1.25 ± 0.38 | -1.7 ± 0.43 |
| UCUAAGCAAUAUUACGCCGU | -1.09 ± 0.19 | -1.72 ± 0.12 |
| CCUAAGCAAUAUUACGCCUA | -2.24 ± 0.28 | -2.7 ± 0.21 |
| AGGUAGCAAUAUUACGGAUC | -0.787 ± 0.034 | -1.721 ± 0.017 |
| UCGAAGCAAUAUUACGGAGC | -1.75 ± 0.33 |  |
| CCGAAGCAAUAUUACGCGGC | -2.27 ± 0.3 | -3.55 ± 0.28 |
| AUCAAGCAAUAUUACGUAGG | -1.51 ± 0.11 | -2.91 ± 0.1 |
| UAGCAGCAAUAUUACGAGUG | -0.131 ± 0.075 | -1.02 ± 0.075 |
| GUGUAGCAAUAUUACGGUGG | -3.36 ± 0.31 | -3.98 ± 0.35 |
| CGAAAGCAAUAUUACGCUAG | -1.57 ± 0.12 | -2.3 ± 0.12 |
| GGACAGCAAUAUUACGGAUC | 0.26 ± 0.13 | -1.3 ± 0.11 |
| AGGUAGCAAUAUUACGAGAA | -2.09 ± 0.047 | -2.95 ± 0.05 |
| ACAAAGCAAUAUUACGGUUC | -1.93 ± 0.17 | -3.12 ± 0.13 |
